The target of experiment [1] is ribosome-nascent chain complex actively translating a 3'-truncated lepB mRNA encoding the first 155 amino acids (Cy3B-labeled 50S subunit) (E. coli (strain MC4100) | E. coli) (UniProt P00803). Put plainly: FRET or BRET; single-molecule FRET in zero-mode waveguides; 100 nM Cy5-SRP in solution, RNCs translating lepB mRNA (155 amino acids) held by the biotinylated mRNA; 750 nM EF-G; Tris-based polymix buffer with 5 mg/ml BSA and 10 µM Blocking oligo; rates estimated from the time at which curves reach 50%.

Experiment [2] has the same target. Put plainly: FRET or BRET; as a1 but 250 nM EF-G (slower elongation). Background: In BRET a luciferase serves as donor, and the signal depends on an acceptor being close.

This is an account of results in paper PMC4213662.

In the case of “Cy5-labeled E. coli signal recognition particle (Ffh(E153C)-Cy5 reconstituted with 4.5S RNA) (from UniProt P0AGD7 1-453) (complex)”, in experiment [1], the half-time of arrival after the initial binding event (2nd–10th arrivals) was 5 s, the half-time of first arrival was 280 s and the kon is 1.8e+06 M⁻¹ s⁻¹. In experiment [2], this substance registered a half-time of arrival after the initial binding event (2nd–10th arrivals) of 12 s and a half-time of first arrival of 350 s.

What is called kon is the rate constant with which the complex forms.
